Measurements from US20220160939A1, “SELF-ASSEMBLING PEPTIDES AS BRONCHIAL OBSTRUCTION AGENTS” (3-D MATRIX, LTD., priority 2014, published 2022).

Tests used:
Format in all cases: physicochemical
[1] = Rheological measurements of RADA16 with NaCl, KCl, CaCl2 (stiffness, reversibility)
Protocol: In a rheological comparison of […] (SEQ ID NO:1)+NaCl, KCl, and CaCl2), solutions of 0.5% RADA16 (SEQ ID NO:1) mixed with 0.005, 0.05, 0.125, 0.25, 0.5, and 1 M NaCl, KCl, and CaCl2) were prepared. The anion, chloride (Cl−), was kept the same to observe the effect of the cations, sodium (Na+), potassium (K+), and calcium (Ca2+). FIG. 21 provides a basic understanding of how varying the cations of a salt solution effects the viscoelastic properties and the stiffness of self-assembling peptides. […] This should be because Ca has […] higher ionic strength than Na and K at the same molar concentrations. Therefore, influence of salts on the peptide solution is more related to their ionic strength rather than their molar concentration, as shown in FIGS. 17-18 and Table 2a-c. In some embodiments, there is a correlation between the properties of the peptide solutions with salts based on the concentration of the salt.
Rheological measurements of stiffness of 2.5% RADA16 (SEQ ID NO:1) and 2.5% RADA16 (SEQ ID NO:1)+0.25 M CaCl2) was evaluated.
Rheological measurements of reversibility of 0.5% RADA16 (SEQ ID NO:1) solution with +0.125, 0.25, and 0.5 M CaCl2) were evaluated. Solutions of 0.5% RADA16 (SEQ ID NO:1) mixed with 0.125, 0.25, and 0.5 M CaCl2) were prepared. The structure of the self-assembled peptide solutions were disrupted thoroughly by application of mechanical stress through vortexing and sonication. The mixtures were placed at room temperature for 48 hours to allow self-assembly to take place. […] FIG. 23A presents raw rheological data of the control peptide solution with salts and the perturbed peptide solution while FIG. 23B provides a comparison of stiffness of the control peptide solution and the perturbed peptide solution.

[2] = Gelation kinetics of 0.5% RADA16 treated with cations and anions
Protocol: Rheological measurements of gelation kinetics of 0.5% RADA16 (SEQ ID NO:1)+NaCl, KCl, and CaCl2) were evaluated. A solution of 0.5% RADA16 (SEQ ID NO:1) was prepared and gelation kinetics were observed by treatment with several cations (e.g., Nat, Ca^2+, K^+) and anions (e.g., Cl^−, CO3^2−, PO4^3−, SO4^2−). It was determined how long it will take for the peptide mixtures to gel and how to control that gelation time by varying the cation/anion type and concentration. […] In vivo and in vitro qualitative experiments and the resulting observations were supportive of these conclusions.

[3] = Mechanical properties of IEIK13 with and without Indigo Carmine; details: 1.5% IEIK13; 0.00585% Indigo Carmine; 24 hours post reconstitution
Protocol: Indigo carmine powder was used to prepare a 1% solution in deionized (DI) water. Using IEIK13 (SEQ ID NO:2) powder, a 2 percent solution was prepared using DI water. The amount of IEIK13 (SEQ ID NO:2) was weighed out and the appropriate amount of DI water was added gently down the side of the container. Mixing was accomplished by vortexing for about 30 seconds, and then sonicating for 30 seconds. The solution was then centrifuged for about 10 to about 15 minutes at […]. The solution may undergo further vortexing and centrifuging until the solution is clear and without bubbles.
To obtain a final concentration of 0.00585% indigo carmine, the necessary amount of 1% IC is added to the appropriate amount of DI water to dilute 2% IEIK (SEQ ID NO:2) to 1.5% IEIK (SEQ ID NO:2). The solution is then vortexted for about 30 seconds and centrifuged for about 10 to about 15 minutes at 3000 rpm. The solution may undergo further vortexing and centrifuging until the solution is clear and without bubbles.
The solution was allowed to sit overnight at room temperature prior to use. The cap may be left off of the container during preparation to allow more efficient removal of bubbles.
Visualization of hydrogel spreading throughout the lumen of the lungs was necessary for determination of feasibility. Indigo Carmine was chosen as a common contrast reagent. […]

[4] = Rheological properties of 1% peptides before and after DMEM treatment for 2 minutes; details: peptides 1%; DMEM 2 minutes; compared with weaker peptide solutions (i.e., PuraMatrix)
Protocol: The effects of Dulbecco's modified Eagle's medium (DMEM) (pH 7.4) on the rheological properties of IEIK13 (SEQ ID NO:2), KLD12 (SEQ ID NO:3), and PuraMatrix® (SEQ ID NO:1) were evaluated on a rheometer (AR500, TA Instruments) with 40 mm plates. DMEM is generally a cell culture medium that contains 6.4 g/L of NaCl, 3.4 g/L NaHCO3 (sodium bicarbonate), minor amounts of other salts, various amino acids, and 4.5 g/L of glucose. The pH level of DMEM is generally 7.2±0.2 and the osmolality is 335±30 mOsm/Kg H2O; both measurements are close to human physiological fluids such as blood.
Peptide solutions (1%) were kept at 4° C. for at least 48 hours before testing. To perform the experiment, 1 mL of peptide solution was gently pipetted and placed on the plate of the rheometer. 2 mL of DMEM solution was gently added around the peptide solution. The peptide solution was treated with DMEM for two minutes, then the media was removed, and the plates were placed at a measuring geometry gap at around 450 μm. Measurements were performed at 37° C. after 2 min of relaxation time. Frequency tests were performed from 1 rad/s to 100 rad/s at 1 Pa of oscillation stress.
The rheological properties of the peptides (1%) were compared before and after DMEM treatment for 2 minutes, as shown in FIG. 1A. […]

Row | Substance | enhancement of stiffness by Ca compared to Na or K ([1]; 0.5% RADA16, chloride salts at the same molar concentrations) | stiffness with added cation solution versus without ([1]; 2.5% RADA16 with addition of 0.125 M CaCl2) | storage modulus ([1]; about 0.5 w/v percent, calcium chloride about 0.125 M) | storage modulus ([1]; about 0.5 w/v percent, calcium chloride about 0.250 M) | storage modulus ([1]; about 0.5 w/v percent, calcium chloride about 0.500 M) | storage modulus ([1]; about 2.5 w/v percent, calcium chloride about 0.125 M) | gelation speed by anion ([2]; chloride) | gelation speed by anion ([2]; sulfate) | mechanical properties with versus without Indigo Carmine [3] | fold increase of storage modulus after DMEM treatment [4]
1 | Arg-Ala-Asp-Ala-Arg-Ala-Asp-Ala-Arg-Ala-Asp-Ala-Arg-Ala-Asp-Ala [PuraMatrix ®] | best enhancement of stiffness | noticeable increase in stiffness | about 25 Pa | about 44 Pa | about 52 Pa | about 600 Pa | quickest gelation | slowest gelation |  | 
2 | Ile-Glu-Ile-Lys-Ile-Glu-Ile-Lys-Ile-Glu-Ile-Lys-Ile [IEIK13] |  |  |  |  |  |  |  |  | no significant difference | lower-fold increase
